Measurements taken from the domain aggregation screens of Martell et al. (2025).

Assay: soluble fraction after stress (log2 fold change); higher = more stays soluble; pooled small domains, quantitative proteomics
Details: stress: 50 degC
Summary of the method: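 The measure of aggregation propensity here is the base-two logarithm of the fold change in the soluble amount of each protein after stress. A higher value means more of that protein stays in solution. Stress was applied at 50°C to pooled libraries of small protein domains, read out by high-throughput quantitative proteomics.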

Sequence | soluble fraction (log2)
HMARKFQKDTGYLNKKERTWLLDFFPSLKKYLYTGAYIRSIIVVESNVTYTDKELPSNYTFTYKFA | -0.252
HMLTKSVLGNQIKVLRLEKGLSQEEFGAPVDLSRSAVSQIESGQMYPSLESIGKIVKYYSTSWDNLVG | -0.821
HMITASNYFIEVERIGIETLPETLKKGHDLVVKSTSNGTNWANYQTSEGIKKVIDLYFQKLNEYANTV | -0.749
HMGTYTSALDGIKGLGKKRKMLLLNTYKSIDVLKSVPLTELSQLIPREVAEALLTKLNRVDD | -0.118
HMGSYANAWQLAEHAAKDMLGEVIYLLDGKEVHAGILETMSAESIKTASAENVDGKVVIRLVSK | -0.0617
HMKETLSDTVSRKLEDMITTQMKAGNRLPTEMVLAEMYSVGRSTIRESLKALSSKGLIVRKKDGTFVSDRV | -0.109
HMGQDGFIGLEAAKKLVLQKLGLTSAEFIKAELDAEDRKYELELIVDGIEYDFDIDAYSGAFLKQEQETV | -0.215
HMISAADLQTYLKGMDYPAGREDLVAHAQRNNAPESVITILQGFSDRTYRSAAEVSEEFGRE | 0.194
HMSGYFSDKKLNELFEQYLIMREKKGKPVVGYQLKILIDRLNQVAANTKEKIEVVSNAIAGDWNTFYPIKR | -0.621
HMVWNVEQIKRAVDQLPDGYRVVFTLYLFEGYDHREIADILGISEGGSKSQFNRAKSKLKEILTAMS | -1.98
HMENKVLVITEEEKGKRLDVYLAAALEVSRSYAQQLIQGEDVVVNDKQVKANYRLSEGDVVQVQLD | ≥ 0.62
HMRTSPGADYEKTYYTIQSGDNLGAIAEKMGVSVADLKDWNDISGTKIYAGKKLVIYVKKGST | 0.183
HMKVTGITDDILQRLKQQKGYLMLSDKSSPDEIYAAFGVSKKVFKQAIGTLFKQRQIIIEEQGIRLAN | -0.39
HMSQIANLLLSKNIKVNNQNIIYYETVLKYLPNNEKKEFFINAMKNNIYFTEEEIKNFGNIFN | -1.66
HMTDSLELADLLRRAIITGEYKPRERLVEMELAQKYSVSRTPVREALKHLEALGLVKMERYKGAMVAD | -0.46
HMIEDMTINIEERLSLNGDIKKSEYILQYIKPDFIRKVILSPELNKGEIYIYDSKKKVMYLPLFDQVSEEI | -0.463
HMYELSDTEWKIIEQVGLGASNKEIAASLHFSEGTIRNYLSVILDKLSLRDRTQLAILYVKMN | -0.058
HMGPSLIRIASNPVAEVFIDGTRVGTTPFEMPADGTLKTVRLTAKDHDDLVVPLRSMKSMEIMLTLRRI | -0.589
HMLDGFEVGMTVMRKPGTETGFTGWPPFADKDEFPVIERIDTSDSTLLLRFNDTSWWINASLVEPSDV | -1.33
HMPALELLVESKKPLLIHGEKIAEDINLFDREKYFIDDELIRIVKEFPSLKIILEHVSSKYGAD | -1.5
HMRAVPSIAFVTQKLIEQGVTMEQLVRSLLLDHEEYENDDSLERTADELFGKARMIISNYTPE | -1.01
HMVSRKIENPYWANKEKQHIIAEFFYPDTNKRVTASIMNDGSNRDYEEILRGYSIEQIDANTNRRLEER | 0.436
HMDSLQDFAYEEIKKRIQNGEYAPGTKLNTQEISDSLGISRSPVLAAINRLIALGLVEATPRKGTTVA | 0.0527
HMLDVGDQLVKKLKDNDSLDFHFVNSKEANKGLKDGDYYMVITIPSNFSKNATTLLDKNPKKMVLNYTTNP | 0.0441
HMDVSEITTIKWIIKETKLGINEKILIYVNSKNFTVETLMEGFEIMSKYLVENVSSDKIVYIKN | -0.179

Sequence | soluble fraction (log2)
HMRKMNDAVFYVEMSRPKRGYYTATYKLITRNPNSLPEHEITRRFFQMLEETIRKNPPYYLWTH | -0.328
HMDKLSYALGLSMGHNFLGSGIKSLNVEDFAKGVEAVYKQEKPEISFDEAKKIINEFFSNLQDEIAE | -0.628
HMIDAAHLEKAILSLPEGARAVFVLIETEGFAHREVAELLGISEGTSKSQLNYAKKRLREILV | -0.311
HMKKDDLKQINGIGTTIEKKLNEIDIYNFYQISNLSKEDIETISEKIKTFPGKIERDNWVGQAQELL | 0.0191
HMHVYSYPAAVKIKNAVGREMMVTLLGRSGTHVQFARQDGEEFVYPISSLDLAAQTLISKYPNDGIKN | -0.444
HMTVVLPGESLTVNIIQEGKELGQGVGYLDDGTMVVIEDGRRYIDQTIEVTVTRVLQTVAGRMIFAQLT | -0.646
HMDEILHHPSYRAIYEYMLDHKHVKTKDIAALLNVKEPRARQLLKEMIDKHFIIALGSNRNREYELL | -0.495
HMLPLPRFASLDSSEANLRAGPGKDYPILWVYQRKGLPVEIIQEFDTWRRIRDRDGTVGWVQQNLL | -0.405
HMGSLGSLLKSVRNQRGLSRQQMAQSLNIGVRAIEQIEEGERKPDLELLNRYARGLMDPSVT | -0.0584
HMAFAVWVKLVAIGPNYAQLEIEQGTQRNVRTLRPGDDAPEGVRLLSLTPTHAEVQANGIARKLALGQGMA | -0.381
HMQPDDELVRLLLIKIFNDKQLKVNPAVINYLLRRIDRSFESINNFVKKIDEFSLEKGRKITVNLVSGFF | -0.653
HMTKQIILVHVAGKVKKPDVYPLLQGSRVADAIKAAGGAKKGVELNDINLARVLIDGEQVFVGYVPE | -1.58
HMPAASDALAGELAQIARLDIAKLLAGDLSEADWSRITSATVQLSERHPDASDELTALVERIDTAYSARAT | 0.0455
HMASSVKAPLPGVILDIKVKVGDTIKNGDTVVILEAMKMENNIHSDKDGVVKSIEVNKGDSVLEGATLLTI | -0.0654
HMALPGESVYVSILQSGSNRDQGVGYLDDGTMVVVDGAIKDIGKSIEVVINKSHQTVAGKMLFAKKVA | -0.0558
HMKTGIGIVEANGGLRLRSQASTSSDVLSTAHNGDNVVVIRQVGNWYLVNYNLKIGYMHSDYITFKE | -4.82
HMNSQSGKGGVGYILETKYGLNLPPKMREAMGYAAKGVSDHLHKELHPDEIFDLFKKTFENVGQPYS | -0.0272
HMTNATVGQIKKLARASILYGNSNLSGNRYTYKANTTVTILQNISSNVDKIRVNVTGRVAYIDNSNYSSST | -3.56
HMNQYIFVLNEKGARITSFVDNTIPKEELIALAKQDYPNAADYIYSADGDSMLDEFMRGKLYVNGQFVAA | -0.69
HMEREQNIEHGRAIVERELKRLGLSDVYTIADIATALRHDDVDQFLAKIGFGDIQSTQIGGAIAALQQR | -0.0664
HMKPVTNHTVKFYVDDVLWKTVTVKHGGNVRLADLPMSDGKTFVGWSESVVNVTKDLTVFALFS | -0.562
HMDPPYKDKNLHELLLKINNLNILKKDSVIILHRHKKQKEIFPSNFKIIEQKQYGISKIIFLTVL | 0.00254
HMTNPPITTEARNLVVEQLKELNALHPEKARELADSYKKEFNVPKVIGHITEARHGEFLALAISKIDES | -0.144
HMYEGNEFSSTGMFREDILAITAVHPMREDAVTELLARSNESEETLEMMIDEELLRRVAYGNHNYYMRRFR | -0.428
HMDSKPNDLLFVYVSQLIRSLTLNSSKKDSELADELEVSISQIRIWLKKLINEQLIVKESKPVKYRWKG | -2.95

Sequence | soluble fraction (log2)
HMAEVDREEALRIALAHAAVARRDVRNLKIERGEENGVPVYKVEFETAFGDFDVAVSRRSGDVVDAD | 0.0689
HMEDPLGDLIGRIAAATGRPVQDIVAEVHRVVTDHFDGNLRVEAAAVILARKYGVAFEDKLSALQRSV | 0.00767
HMEQNTKAYEQVRTLTDLLNQYRHEYYNLSAPSVSDQEYDRLFDALAALEKQTGIVMSNSPTQTVG | 0.0359
HMYNKKAYVNTNSDFLNVRSEASTESSVVDKLARGTEVNIVGNIQNGFYPIVLNEKNAWVSSDWISFEKPT | 0.227
HMSRPLISNMLRLLNLPPTVQRKVAAGVISAGHARALLGLNDEKEIEKLANRIVAEGLSVRATEEIVAIA | -0.937
HMPAFGALTLRQRDLVELIAQGLDNSQIAARLGLAEKTVRNHITMIFNKLEMENRSQVIVRARESGFGAVR | -1.53
HMEPERRHLEVPAEAEGERIDRFLASQLENLSRSRIQALIKAGYVRNRRGTIEDPGLRVKPGDAFVVDLPP | 0.44
HMGKNYYEILGITKSASEEQVRKAFRGLAMEWHPDRNRSADSEERFKEINEAYQVLIDPKKRQMYDQYGR | 0.388
HMNTTTTKVVSVSSLNMRSGPSTSYNIIEVLTKDTQVEVISVEDGWAKIKYNSKTGYVSNQYLSDKK | 0.0146
HMNSSLLGKRIKSLREDHDLTQKELSLMIGLTPKMISFYENNQRTPPLDILLKLAKIFEVSVDYLIGYA | -0.551
HMKTKTFSPGEIVKIQTRDKSWQGTILESHDPEIILLKLTTGYNIGIRENEIINAKVIEKSKKDVKDAE | 0.183
HMAEAIVMSTAAPVKSSPDPQSKDIFVLHEGTKVAVGDSLGDWREIRIADGNKGWVLVSAIEMI | 0.0979
HMRRSDLVTQGDEILKRLQWNQQQAKDFLNQHLKASSRQQLTDEQLLNFNMLLEEQLVKSME | 0.103
HMDINMELGKNIRRLRKLNNLTQQSLANQMNRSKTLIALWEKGERDPSSIDLKRLSEIFNVRADDIIG | -0.689
HMITSELALVKLVVKGANRVEALRVAETFRARALDVTLSSFVFELTGKPSKLDAFIGLMRSLGDTEILKR | -4.06
HMNILVAISDTGEIWINKRRVDARAVQANIERLHAENPQGTVVIQADKQATTETLIKVMDASRAAGVFDVS | -0.618
HMWKQISSEAELLPAVRSVIQANPGEAEKLRNGEMAPLEFLTGLVMKKTNGMAVPQIVKTLIKKELKI | 0.00479
HMAPDGIEDKEGWLKVLPMITNLSIQMQNLQARGMDYEHIRNLLHETLLRYDDRIDSNLFIPNV | 4.47e-05
HMIVEIVPSALHGERVDRIVAFILDVSRSVASGLVERGAVHVDGSVETSGKVRLVEGQEVSVDPSQVPG | -0.46
HMRTLKDSTEYLIRSMLLRGEMKVGEIYSANALAKELNISNSPVREAMMSLVDRGLLENVRNRGFRVV | -1.44
HMSMPEVLSDRELEIFRMIGTGMSTGDIAKKLNISVNTIESHRKKIKDKLGIQKGSELVKAAVQWVSTQQ | -0.262
HMPSEAVQNIIGNVKSKRRVATIGQARGLASNVIKEGKFDNVSNTAMVNRLIDLGIISNSIGYQ | 0.115
HMSKTQYTFREVGSQFELHAPSTNHKIMVDANHPKYGWLSSQEAGRVINVYESGKMTSSQDYYGLYKQS | -0.0727
HMAMDYEGFKKSVYALTSIDLNAYKERQMKRRIDTLIAKNKYNGYEDYTAAIKKDKALFEEFVNYLTIN | -0.284
HMAISEAERARLQTKIKERNKMARWINTNLNPTSKIRNINPAETVRKLMTQDDADSLERSLDAFMEA | -0.0378
